# Assay results taken from PMC11931385, “Structural and functional analysis of cancer-associated missense variants in the retinoblastoma protein pocket domain” (The Journal of Biological Chemistry, 2025).
# Where a chain is given by its changes, count along the chain named. Names may count otherwise. No end group written: not given here. TMR = tetramethyl rhodamine dye
# B1: TMR-E2F1^TD, peptide of the E2F1 transactivation domain (peptide)
# peptide: {TMR}-GEGIRDLFDCDFGDLTPLD
# notes: also called E2F^TD; source: synthetic peptide, bought: GenScript
# B2: TMR-E7^LxCxE, LxCxE peptide of the E7 oncoprotein from HPV (peptide)
# peptide: DLYCYEQLN
# modifications: also: TMR label, position not given here
# notes: source: synthetic peptide, bought: GenScript
# How the values were obtained:
# Test in all cases: fluorescence polarisation; 25 °C; unlabeled Rb^P titrated against 1.5 nM TMR-E2F1^TD or 7.5 nM TMR-E7^LxCxE; 25 mM Tris pH 8.0, 200 mM NaCl, 1 mM DTT, 0.1% Tween-20; 2 min incubation; quadratic fit; apparent Kd for the variants, Kd for WT
# Conditions in all cases: both partners purified
# Rb^P L572I = target: T1, Rb^P L572I (human, UniProt P06400 380-788, L572I)
# T1 construct: also called variant 31
# T1 sequence (looked up): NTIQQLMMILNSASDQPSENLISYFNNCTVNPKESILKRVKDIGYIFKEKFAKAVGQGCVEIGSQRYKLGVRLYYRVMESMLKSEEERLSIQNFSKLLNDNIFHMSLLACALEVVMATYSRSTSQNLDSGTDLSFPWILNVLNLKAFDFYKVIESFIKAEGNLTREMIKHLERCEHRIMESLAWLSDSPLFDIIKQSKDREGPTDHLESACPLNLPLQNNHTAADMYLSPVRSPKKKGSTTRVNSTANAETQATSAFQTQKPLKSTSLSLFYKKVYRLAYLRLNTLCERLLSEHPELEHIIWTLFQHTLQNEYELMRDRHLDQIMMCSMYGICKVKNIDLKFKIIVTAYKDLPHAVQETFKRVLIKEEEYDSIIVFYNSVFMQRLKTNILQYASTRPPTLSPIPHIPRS
# Rb^P R741H = target: T2, Rb^P R741H (human, UniProt P06400 380-788, R741H)
# T2 construct: also called variant 69
# T2 sequence (looked up): T1 sequence (looked up) with I193L, R362H
# Rb^P R621H = target: T3, Rb^P R621H (human, UniProt P06400 380-788, R621H)
# T3 construct: also called variant 42
# T3 sequence (looked up): T1 sequence (looked up) with I193L, R242H
# Rb^P Q444R = target: T4, Rb^P Q444R (human, UniProt P06400 380-788, Q444R)
# T4 construct: also called variant 4
# T4 sequence (looked up): T1 sequence (looked up) with Q65R, I193L
# Rb^P R741S = target: T5, Rb^P R741S (human, UniProt P06400 380-788, R741S)
# T5 construct: also called variant 70
# T5 sequence (looked up): T1 sequence (looked up) with I193L, R362S
Binder,Kd (Rb^P L572I),Kd (Rb^P R741H),Kd (Rb^P R621H),Kd (Rb^P Q444R),Kd (Rb^P R741S)
B1,37 nM,21 nM,30 nM,15 nM,32 nM
B2,4 nM,18 nM,10 nM,7 nM,16 nM
